Results on two molecules are retold here after patent publication US20150050309A1.

Some results are limits rather than exact numbers.

Assay in all cases: cell-based or functional assay
Experiment [1] concerns the target HIV Env of primary isolate DU422 (HIV).
Experiment [2] addresses HIV Env of primary isolate DU123 (HIV).
In experiment [3] the target is HIV Env of primary isolate 6101 (HIV).
In experiment [4] the target is HIV Env of primary isolate TV-1 (HIV).
Experiment [5] concerns the target HIV Env of primary isolate SF162 (HIV).
For experiment [6], the target named is HIV Env of primary isolate BG1168 (HIV).

B1: urtica diotica (UDA) lectin (protein, UniProt P11218 24-112, looked up)
chain: QRCGSQGGGGTCPALWCCSIWGWCGDSEPYCGRTCENKCWSGERSDHRCGAAVGNPPCGQDRCCSVHGWCGGGNDYCSGSKCQYRCSSS
As for B1, the neutralization titer of HIV primary isolate is 468 titer in experiment [1]; 1580 titer in experiment [2]; 428 titer in experiment [3]; 600 titer in experiment [4]; 467 titer in experiment [5]; 190 titer in experiment [6].

B2: galanthus nivalis lectin (protein, UniProt P30617 24-128, looked up)
chain: DNILYSGETLSTGEFLNYGSFVFIMQEDCNLVLYDVDKPIWATNTGGLSRSCFLSMQTDGNLVVYNPSNKPIWASNTGGQNGNYVCILQKDRNVVIYGTDRWATG
On to B2, for which the neutralization titer of HIV primary isolate (lectin at 400 ug/ml) in experiment [1] is over 43700 titer; in experiment [2], over 43700 titer; in experiment [3], 724 titer; in experiment [4] it was over 43700 titer; in experiment [5] it was 22400 titer; in experiment [6], under 20 titer.
